# Assay results: PMC8881745 (Protein expression and purification, 2022)
# B1: SHOC2, native full-length (natural protein, human, UniProt Q9UQ13 1-582, looked up)
# chain: MSSSLGKEKDSKEKDPKVPSAKEREKEAKASGGFGKESKEKEPKTKGKDAKDGKKDSSAAQPGVAFSVDNTIKRPNPAPGTRKKSSNAEVIKELNKCREENSMRLDLSKRSIHILPSSIKELTQLTELYLYSNKLQSLPAEVGCLVNLMTLALSENSLTSLPDSLDNLKKLRMLDLRHNKLREIPSVVYRLDSLTTLYLRFNRITTVEKDIKNLSKLSMLSIRENKIKQLPAEIGELCNLITLDVAHNQLEHLPKEIGNCTQITNLDLQHNELLDLPDTIGNLSSLSRLGLRYNRLSAIPRSLAKCSALEELNLENNNISTLPESLLSSLVKLNSLTLARNCFQLYPVGGPSQFSTIYSLNMEHNRINKIPFGIFSRAKVLSKLNMKDNQLTSLPLDFGTWTSMVELNLATNQLTKIPEDVSGLVSLEVLILSNNLLKKLPHGLGNLRKLRELDLEENKLESLPNEIAYLKDLQKLVLTNNQLTTLPRGIGHLTNLTHLGLGENLLTHLPEEIGTLENLEELYLNDNPNLHSLPFELALCSKLSIMSIENCPLSHLPPQIVAGGPSFIIQFLKMQGPYRAMV
# Molecular target: PPP1CA(2-330), His6-MBP tag cleaved by TEV protease (human, UniProt P62136 2-330)
# Sequence (P62136 2-330): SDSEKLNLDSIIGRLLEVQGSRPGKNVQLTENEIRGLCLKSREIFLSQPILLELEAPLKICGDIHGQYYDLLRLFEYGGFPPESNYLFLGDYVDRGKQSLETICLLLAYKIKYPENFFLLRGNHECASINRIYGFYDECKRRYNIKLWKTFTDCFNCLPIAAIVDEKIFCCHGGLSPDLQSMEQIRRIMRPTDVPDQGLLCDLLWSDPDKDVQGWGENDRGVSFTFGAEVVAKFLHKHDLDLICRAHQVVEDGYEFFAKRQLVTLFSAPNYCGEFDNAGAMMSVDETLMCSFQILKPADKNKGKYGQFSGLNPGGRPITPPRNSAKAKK
# Assay: SEC
binder,measurement,value
B1,stoichiometry N,1
